The source of these data is patent US20160362487A1.

Assay [1] has as its target human IL-33 (R&D Systems, #3625-IL-010/CF) (human) (UniProt O95760). Nature of the assay: BLI; hIL-33 pre-mixed with mAb-2 H4H9667P.
The target is the same in assay [2]. Nature of the assay: BLI; hIL-33 pre-mixed with mAb-2 H4H9670P. For orientation: Biolayer interferometry detects binding as a change in optical thickness at a sensor tip.
Assay [3] has the same target. Nature of the assay: BLI; hIL-33 pre-mixed with mAb-2 H4H9676P.
Assay [4] has the same target. Nature of the assay: BLI; hIL-33 pre-mixed with mAb-2 H1M9559N.
Assay [5] addresses cynomolgus monkey IL-33 expressed with a C-terminal hexahistidine tag (cynomolgus monkey). In words: BLI; mAb-1 on captured MfIL-33-6His.
Assay [6] has the same target. In words: BLI; captured MfIL-33-6His, mAb-1 step with Buffer.
For assay [7] the target is unchanged. In words: BLI; captured MfIL-33-6His, mAb-1 step with Isotype control.
Assay [8] shares this target. In words: BLI; captured MfIL-33-6His pre-complexed with mAb-1 H1M9559N.
Assay [9] has the same target. Nature of the assay: BLI; captured MfIL-33-6His pre-complexed with mAb-1 H1M9565N.
Assay [10] has the same target. Nature of the assay: BLI; captured MfIL-33-6His pre-complexed with mAb-1 H1M9566N.
Assay [11] has the same target. In words: BLI; captured MfIL-33-6His pre-complexed with mAb-1 H4H9640P.
Assay [12] shares this target. In words: BLI; captured MfIL-33-6His pre-complexed with mAb-1 H4H9664P.
Assay [13] has the same target. Nature of the assay: BLI; captured MfIL-33-6His pre-complexed with mAb-1 H4H9665P.
For assay [14] the target is unchanged. Nature of the assay: BLI; captured MfIL-33-6His pre-complexed with mAb-1 H4H9667P.

Chain of human IL-33 (R&D Systems, #3625-IL-010/CF) (human) (O95760 112-270 limits assumed): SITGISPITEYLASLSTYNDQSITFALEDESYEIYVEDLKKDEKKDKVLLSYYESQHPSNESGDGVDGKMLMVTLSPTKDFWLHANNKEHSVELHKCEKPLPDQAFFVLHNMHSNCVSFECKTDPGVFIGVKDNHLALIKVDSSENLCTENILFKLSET
Chain of cynomolgus monkey IL-33 expressed with a C-terminal hexahistidine tag (cynomolgus monkey) (chain, as listed by the source limits assumed): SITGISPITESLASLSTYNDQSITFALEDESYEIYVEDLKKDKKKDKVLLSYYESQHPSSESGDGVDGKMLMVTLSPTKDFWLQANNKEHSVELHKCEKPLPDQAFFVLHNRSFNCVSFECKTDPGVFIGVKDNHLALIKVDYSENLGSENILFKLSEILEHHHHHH

Isotype control 1 (antibody): the mAb-1 Binding to the Pre-complex of mAb-2 & hIL-33 in assay [1], in assay [2] and in assay [3] was 0.01 nm throughout.
Isotype control 2 (antibody): the mAb-1 Binding to the Pre-complex of mAb-2 & hIL-33 in [4] came to 0.02 nm.
As for isotype control antibody, the mAb-1 Binding (nm) in assay [5] turned out to be 0.01 nm. Also, the mAb-2 Binding to the Pre-complex of mAb-1 & MfIL-33-6xHis in assay [6] was found to be 0.03 nm; in assay [7] it was 0.01 nm; in [8], 0.01 nm; in assay [9], 0.04 nm; in assay [10], 0.04 nm; in assay [11], 0.02 nm. The mAb-2 Binding to the Pre-complex of mAb-1 & MfIL-33-6xHis in [12] is 0.02 nm; in assay [13], 0.03 nm; in assay [14], 0.03 nm.
